According to patent US20240018252A1 (Pfizer, published 2024):

T1: human BCMA (human, UniProt Q02223 1-54)
T1 construct: soluble analyte in SPR; also called hBCMA; huBCMA
T1 sequence: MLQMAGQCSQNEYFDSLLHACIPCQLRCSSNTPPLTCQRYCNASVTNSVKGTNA


How the values were obtained:
human CD3 (huCD3ed) [1] = molecular target: T2, human CD3 (huCD3ed) (human, UniProt P07766 23-126; P04234 22-105); assay: SPR (ProteOn XPR36), IgG on chip, huCD3ed analyte, 37 C; column head says nM but kd/ka gives this number in M
T2 construct: Soluble analyte in SPR; The delta chain is inferred from the label 'ed'; also called hCD3ed; hCD3
T2 sequence (P07766 23-126, chain 1 of 2): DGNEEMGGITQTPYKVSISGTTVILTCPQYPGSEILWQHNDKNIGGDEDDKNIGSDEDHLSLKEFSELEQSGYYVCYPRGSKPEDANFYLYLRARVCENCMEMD
T2 sequence (P04234 22-105, chain 2 of 2): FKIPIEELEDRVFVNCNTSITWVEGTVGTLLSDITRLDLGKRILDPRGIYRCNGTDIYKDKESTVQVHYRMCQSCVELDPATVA
Procedure: (§1) All experiments were performed on a Bio-Rad Proteon XPR36 surface Plasmon resonance biosensor (Bio-Rad, Hercules, CA). […] The analysis temperature for the immobilization was 25° C. and the running buffer was HBS-T+(10 mM HEPES, 150 mM NaCl, 0.05% Tween-20, pH 7.4). Channels were activated in the analyte (horizontal) direction by injecting a mixture of 1 mM ECD and 0.25 mM NHS for 3 minutes at a flow rate of 30 μL/min. IgGs were immobilized on the activated spots by injecting them in the ligand (vertical) direction at […] in 10 mM Acetate pH 4.5 buffer for 1.5 minutes at 30 μg/mL. The activated surfaces were blocked by injecting 1M ethanolamine, pH 8.5 in the analyte direction for 3 minutes at 30 μL/min.
(§2) The analysis temperature for the hCD3 binding analysis was 37° C. or 25° C. in a running buffer of HBS-T+, supplemented with 1 mg/mL BSA. A kinetic titration method was employed for the interaction analysis as described in Abdiche, et al. The hCD3 (human CD3) analyte was injected in the analyte direction using a series of injections from low to high concentration. The concentrations used were 0.08 nM, 0.4 nM, 2 nM, 10 nM and 50 nM (a 5-membered series, with a 5-fold dilution factor and top concentration of 50 nM). The association time for a given analyte dilution was two minutes. Immediately after the 50 nM hCD3 injection, dissociation was monitored for 2 hours.
(§3) The sensorgrams were double-referenced and fit to a 1:1 Langmuir with mass transport kinetic titration model in BIAevaluation Software version 4.1.1 (GE Lifesciences, Piscataway, NJ).

human CD3 (huCD3ed) [2] = molecular target: T2, human CD3 (huCD3ed); assay: SPR (ProteOn XPR36), IgG amine-coupled on chip, huCD3ed as analyte, 37 C
Procedure: as §1, §2, §3

cynomolgus CD3 (cyCD3ed) = molecular target: T3, cynomolgus CD3 (cyCD3ed) (cynomolgus, UniProt Q95LI5 22-117; Q95LI8 22-105); assay: SPR (ProteOn XPR36), IgG amine-coupled on chip, cyCD3ed as analyte, 25 C
T3 construct: Named only by the column head 'cyCD3ed'
T3 sequence (Q95LI5 22-117, chain 1 of 2): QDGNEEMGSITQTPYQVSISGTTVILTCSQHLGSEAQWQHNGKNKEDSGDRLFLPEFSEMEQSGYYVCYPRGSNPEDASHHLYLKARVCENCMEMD
T3 sequence (Q95LI8 22-105, chain 2 of 2): as the sequence (P04234 22-105, chain 2 of 2) above, with I5V, N15K, I20V, S32T, D33N, I34N, T64A, S74N, V83L counted along it

human CD3 (huCD3ed) [3] = molecular target: T2, human CD3 (huCD3ed); assay: SPR (ProteOn XPR36), IgG amine-coupled on chip, huCD3ed as analyte, 25 C
Procedure: as §1, §2, §3

human CD3 (huCD3ed) [4] = molecular target: T2, human CD3 (huCD3ed); assay: Biacore SPR, antibody as ligand, hCD3ed 80 nM-0.64 nM, kinetic fit
human BCMA = molecular target: T1, human BCMA; assay: SPR, IgG immobilized, human BCMA analyte, 37 C
Procedure: as §1, with “at […]. The activated” for “at 30 μg/mL. The activated”, “at […].” for “at 30 μL/min.”
as §2, with “hBCMA” for “hCD3”, “BCMA)” for “CD3)”
as §3

Binder	Kd (human CD3 (huCD3ed) [1]) [nM]	T½ (human CD3 (huCD3ed) [2]) [min]	koff (human CD3 (huCD3ed) [2]) [s⁻¹]	kon (human CD3 (huCD3ed) [2]) [M⁻¹ s⁻¹]	Kd (human CD3 (huCD3ed) [4]) [nM]	t1/2 (human CD3 (huCD3ed) [4]) [min]	other results
h2B4-VH-wt VL_TK (antibody, V domains shown, Anti-CD3; also called h2B4-TK) VH: EVQLVESGGGLVQPGGSLRLSCAASGFTFSDYYMTWVRQAPGKGLEWVAFIRNRARGYTSDHNASVKGRFTISRDNAKNSLYLQMNSLRAEDTAVYYCARDRPSYYVLDYWGQGTTVTVSS VL: DIVMTQSPDSLAVSLGERATINCKSSQSLFNVRSRKNYLAWYQQKPGQPPKLLISWASTRESGVPDRFSGSGSGTDFTLTISSLQAEDVAVYYCKQSYDLFTFGSGTKLEIK	38	0.83	0.014	380000			
h2B4-VH-yaes VL_TK (antibody, V domains shown, Anti-CD3; also called h2B4-yaesTK) VH: EVQLVESGGGLVQPGGSLRLSCAASGFTFSDYYMTWVRQAPGKGLEWVAFIRNRARGYTSDYAESVKGRFTISRDNAKNSLYLQMNSLRAEDTAVYYCARDRPSYYVLDYWGQGTTVTVSS VL: DIVMTQSPDSLAVSLGERATINCKSSQSLFNVRSRKNYLAWYQQKPGQPPKLLISWASTRESGVPDRFSGSGSGTDFTLTISSLQAEDVAVYYCKQSYDLFTFGSGTKLEIK	100	0.5	0.023	230000			
h2B4 (antibody, V domains shown, Anti-CD3; tested as human IgG immobilised on the chip; also called h2B4-1d) VH: EVQLVESGGGLVQPGGSLRLSCAASGFTFSDYYMTWVRQAPGKGLEWVAFIRNRARGYTSDHNASVKGRFTISRDNAKNSLYLQMNSLRAEDTAVYYCARDRPSYYVLDYWGQGTTVTVSS VL: DIVMTQSPDSLAVSLGERATINCTSSQSLFNVRSRKNYLAWYQQKPGQPPKLLISWASTRESGVPDRFSGSGSGTDFTLTISSLQAEDVAVYYCKQSYDLFTFGSGTKLEIK	31.4	0.84	0.0137	437000			Kd (cynomolgus CD3 (cyCD3ed)): 3.8 nM; T½ (cynomolgus CD3 (cyCD3ed)): 7.7 min; koff (cynomolgus CD3 (cyCD3ed)): 0.0015 s⁻¹; kon (cynomolgus CD3 (cyCD3ed)): 390000 M⁻¹ s⁻¹; Kd (human CD3 (huCD3ed) [3]): 5.3 nM; T½ (human CD3 (huCD3ed) [3]): 5.8 min; koff (human CD3 (huCD3ed) [3]): 0.002 s⁻¹; kon (human CD3 (huCD3ed) [3]): 370000 M⁻¹ s⁻¹
h2B4-VH-hnps VL_TK (antibody, V domains shown, Anti-CD3; also called h2B4-hnpsTK) VH: EVQLVESGGGLVQPGGSLRLSCAASGFTFSDYYMTWVRQAPGKGLEWVAFIRNRARGYTSDHNPSVKGRFTISRDNAKNSLYLQMNSLRAEDTAVYYCARDRPSYYVLDYWGQGTTVTVSS VL: DIVMTQSPDSLAVSLGERATINCKSSQSLFNVRSRKNYLAWYQQKPGQPPKLLISWASTRESGVPDRFSGSGSGTDFTLTISSLQAEDVAVYYCKQSYDLFTFGSGTKLEIK	41	0.72	0.016	390000			
h2B4-VH-yads VL_TK (antibody, V domains shown, Anti-CD3) VH: EVQLVESGGGLVQPGGSLRLSCAASGFTFSDYYMTWVRQAPGKGLEWVAFIRNRARGYTSDYADSVKGRFTISRDNAKNSLYLQMNSLRAEDTAVYYCARDRPSYYVLDYWGQGTTVTVSS VL: DIVMTQSPDSLAVSLGERATINCKSSQSLFNVRSRKNYLAWYQQKPGQPPKLLISWASTRESGVPDRFSGSGSGTDFTLTISSLQAEDVAVYYCKQSYDLFTFGSGTKLEIK	86	0.79	0.021	240000			
h2B4-VH-yaps VL_TK (antibody, V domains shown, Anti-CD3) VH: EVQLVESGGGLVQPGGSLRLSCAASGFTFSDYYMTWVRQAPGKGLEWVAFIRNRARGYTSDYAPSVKGRFTISRDNAKNSLYLQMNSLRAEDTAVYYCARDRPSYYVLDYWGQGTTVTVSS VL: DIVMTQSPDSLAVSLGERATINCKSSQSLFNVRSRKNYLAWYQQKPGQPPKLLISWASTRESGVPDRFSGSGSGTDFTLTISSLQAEDVAVYYCKQSYDLFTFGSGTKLEIK	92	0.5	0.023	250000			
1C10 (antibody, mouse IgG1, V domains shown, Cloned from immunized mouse, expressed as mouse IgG1; also called anti-CD3 1C10) VH: QVQLQQPGSELVRPGASVILSCKASGYTFTSYWMHWVRQRPGQGLEWIGNIYSGGDTINYDEKFKNKAILTVDTSSSTAYMHLSSLTSEDSAVYYCTRDATSRYFFDYWGQGTTVTVSS VL: DIVMSQSPSSLAVSAGEKVTMSCKSSQSLLNSRTRKNYLAWYQQKPGQSPKLLIYWASTRESGVPDRFTGSGSGTDFTLTIDSVQPEDLAVYYCTQSFILRTFGGGTKLEIK					8	4.88	
2B4 (antibody, mouse IgG1, V domains shown, Cloned from immunized mouse, expressed as mouse IgG1; also called anti-CD3 2B4) VH: EVKLVESGGGLVQPGGSLRLSCATFGFTFTDYYMTWVRQPPGKALEWVAFIRNRARGYTSDHNASVKGRFTISRDNSQNILYLQMNTLRAEDSATYYCARDRPSYYVLDYWGQGTTVTVSS VL: DIVMSQSPPSLAVSVGDKVTMSCTSSQSLFNSRSRKNYLAWYQQKSGQSPKLLISWASTRESGVPDRFTGSGSGTDFTLTISSVQAEDLAVYYCKQSYDLFTFGSGTKLEIK					7.33	4.21	
COMBO_Rd4_0.6nM_C19 (antibody, V domains shown, IgG in SPR) VH: EVQLLESGGGLVQPGGSLRLSCAASGFTFSSYPMSWVRQAPGKGLEWVSAIGGSGGSLPYADSVKGRFTISRDNSKNTLYLQMNSLRAEDTAVYYCARYWPMDSWGQGTLVTVSS VL: EIVLTQSPGTLSLSPGERATLSCRASQSVSAVYLAWYQQKPGQAPRLLMYDASIRATGIPDRFSGSGSGTDFTLTISRLEPEDFAVYYCQQYRAWPLTFGQGTKVEIK							Kd (human BCMA): 0.02 nM; koff (human BCMA): 0.000155 s⁻¹; kon (human BCMA): 7.86e+06 M⁻¹ s⁻¹
UCHT1 (antibody, V domains shown) VH: EVQLQQSGPELVKPGPSMKISCKASGYSFTGYTMNWVKQSHGKNLEWMGLINPYKGVSTYNQKFKDKATLTVDKSSSTAYMELLSLTSEDSAVYYCARSGYYGDSDWYFDVWGQGTTLTVFS VL: DIQMTQTTSSLSASLGDRVTISCRASQDIRNYLNWYQQKPDGTVKLLIYYTSRLHSGVPSKFSGSGSGTDYSLTISNLEQEDIATYFCQQGNTLPWTFAGGTKLEIKR					< 4.74	> 13.5	
